Laboratory results published in patent publication US12297265B2, “Antibody and use thereof” (SICHUAN KELUN-BIOTECH BIOPHARMACEUTICAL CO., LTD., priority 2018, dated 2025).
Marks after values point to notes of the source that are not given here.

How the values were obtained:
[1] = test system: Ba/F3-Claudin 18.2 cells; assay: ADCC activity on Ba/F3-Claudin 18.2 cells (NK-92MI_mCD16, CytoTox-Glo); format: cell-based; details: Ba/F3-Claudin 18.2 target cells, NK-92MI_mCD16 effector cells, 6h
Protocol: In order to evaluate the ADCC activity, ten thousand Ba/F3-Claudin18.2 cells were cultured in 40 μl NK-92 media. Antibodies were serially diluted in 10 μl PBS. Fifty thousand NK-92MI_mCD16 cells in 50 μl NK-92 media were added and the reactions were incubated at 37° C. for 6h. 33.3 μl CytoTox-Glo (Promega, G9290) was added to each reaction […].

[2] = test system: HEK293T-Claudin 18.2 cells; assay: NK cell mediated ADCC on HEK293T-Claudin 18.2 cells (LDH); format: cell-based; details: HEK293T-Claudin 18.2 target cells
Protocol: The steps were as follows: HEK293T-Claudin 18.2, L929-Claudin 18.2, KATOIII-Claudin 18.2 and NUGC-4 cells were harvested and centrifuged followed by adjustment of cell density. 1×10^4/well of cells were plated on a plate and incubated overnight. The medium was removed on the next day. NK92MI-CD16a cells (Huabo Biopharm) were centrifuged, resuspended in MEMA medium and adjusted to 1×10^6/mL, then 50 μL/well cells were added to the corresponding wells. […] For HEK293T-Claudin18.2, L929-Claudin18.2 and KATOIII-Claudin18.2 cells, ten antibody concentrations were tested, starting from 40 μg/mL with 5-fold dilution. For NUGC-4 cells, eleven antibody concentrations were tested, starting from 2 mg/mL with 5-fold dilution. 50 μL/well of the diluted antibodies were added to the corresponding wells and the reactions were left to stand in incubator at 37° C., 5% CO2 and incubated for 5.5h. Lysis buffer was then added to the positive control well and incubated for another 0.5h. 50 μL/well of Lactate Dehydrogenase (LDH) detection agent (DOJINDO LABORATORISE, CK12) were added to the wells and the absorbance at 490 nm were taken every 10 min on a plate reader (MD, SpectraMax M2). The results were imported into Graphpad Prism for curve fitting.
The cell used was HEK293T-Claudin 18.2. The ADCC activity of antibody 2C6.9-hz21 on HEK293T-Claudin 18.2 is stronger than that of IMAB362.

[3] = test system: HEK293T-Claudin 18.2 cells; assay: CDC killing of HEK293T-Claudin 18.2 cells (guinea pig serum, CCK8); format: cell-based; details: 20% guinea pig serum, 3 h
Protocol: The procedure is described as follows: HEK293T-Claudin 18.2 cells were harvested and centrifuged followed by adjustment of cell density. 5×10^4/well of cells were plated on a plate and incubated overnight. […] Starting from 20 μg/mL, 10 concentrations were prepared with two-fold dilution. The original cell culture media for HEK293T-Claudin 18.2 cells was removed, and the antibody dilutions were added to the corresponding wells, 100 μL/well. 10 μl/well lysis buffer was provided as the positive control. The reactions were left to stand in incubator at 37° C., 5% CO2 and incubated for 3 h. Then, CCK8 (Rhinogen, QDY-003-D) was added at 20 μl/well and allowed to react for 2h. Absorbance at 450 nm were taken on a plate reader (MD, SpectraMax M2). The results were subjected to curve fitting by Graphpad Prism.

[4] = molecular target: T1, human Claudin18.2 (Homo sapiens, UniProt P56856); assay: Affinity of chimeric and humanized antibodies to Ba/F3-Claudin 18.2 cells (IntelliCyt); format: binding; set-up: expressed in transfected cells; host or cells: Ba/F3 (BaF/3, DSMZ ACC300), hygromycin-selected monoclonal line
Excerpt: In order to evaluate the anti-Claudin18.2 humanized antibodies, codon optimized cDNAs of the heavy chains and the light chains of the candidate humanized antibodies from Example 6 were synthesized and ligated into pcDNA3.4 (by Nanjing Genscript Biotech Corporation). Expi293F cells (purchased from Thermo Incorporation) were co-transfected with pcDNA3.4 coding the heavy chain and light chain of each antibody. The antibodies were purified from the supernatant using protein A (MabSelect SuRe, GE). The affinity of the humanized antibodies to Claudin18.2 was determined using Ba/F3-Claudin18.2 cells which over-expressed human Claudin18.2. Ba/F3-Claudin18.2 cells (60000 in 10 ul buffer) were incubated with purified humanized antibodies on ice for 30 min, followed by washing with buffer (PBS+2% FBS) twice and addition of Alexa647-labeled goat-anti-human IgG Fc antibody (1:500 dilution). The cells were incubated on ice for another 30 min and analyzed by IntelliCyt.

[5] = molecular target: T1, human Claudin18.2; assay: Flow cytometry affinity to HEK293T-Claudin 18.2 cells; format: binding; set-up: expressed in transfected cells
Protocol: The affinity of 2C6.9-hz21 to human claudin 18.2 on cell membrane was detected using HEK293T-Claudin 18.2 cells, as follows. HEK293T-Claudin 18.2 cells were detached and centrifuged, followed by washing for twice with PBS. And then the cells were resuspended in PBS containing 1% BSA and were plated into 96-well tip bottom plate at 300000 cells per well in a volume of 50 μl for 20 wells in total. 2C6.9-hz21 or IMAB362 antibody was then added with 11 concentrations starting from 1000 nM with three-fold dilution. Human IgG was served as negative control. The reactions were mixed well and incubated for 1 h at 4° C. in the dark. Following by three times of washing with PBS, the FITC-labelled anti-human Fc secondary antibody (Biolegend, 409322) was added and incubated for 0.5h in the dark. Detection was performed by flow cytometry (Beckman, Cytoflex) after washing for three times with PBS.

Substance: IMAB362: Zolbetuximab (IMAB362) developed by Astellas, human-mouse chimeric IgG1 antibody targeting Claudin 18.2; control antibody, sequences from CN 101312989 B [reference compound]
- ADCC EC50 [1]: 0.351* μg/mL
- Max killing rate [1]: 54.17* %
- Max. Cytotoxicity ([2]; NK92MI-CD16a effector cells, Table 13): 55%
- Max Cytotoxicity ([2]; Table 14 experiment): 20%
- maximal killing rate (CDC) [3]: about 70%
- Max MFI [4]: 4.99* ×10^6
- Max MFI [5]: 156715.7
